Test results as given in PMC5887453 (Nucleic Acids Research, 2018).
Residue numbers refer to the chain shown, from its start.

What was measured:
Assay in all cases: native gel or EMSA
[1] = target: T1, PhoEF-2 M219S (Pyrococcus horikoshii, UniProt O59521 1-732, M219S)
T1 sequence (looked up): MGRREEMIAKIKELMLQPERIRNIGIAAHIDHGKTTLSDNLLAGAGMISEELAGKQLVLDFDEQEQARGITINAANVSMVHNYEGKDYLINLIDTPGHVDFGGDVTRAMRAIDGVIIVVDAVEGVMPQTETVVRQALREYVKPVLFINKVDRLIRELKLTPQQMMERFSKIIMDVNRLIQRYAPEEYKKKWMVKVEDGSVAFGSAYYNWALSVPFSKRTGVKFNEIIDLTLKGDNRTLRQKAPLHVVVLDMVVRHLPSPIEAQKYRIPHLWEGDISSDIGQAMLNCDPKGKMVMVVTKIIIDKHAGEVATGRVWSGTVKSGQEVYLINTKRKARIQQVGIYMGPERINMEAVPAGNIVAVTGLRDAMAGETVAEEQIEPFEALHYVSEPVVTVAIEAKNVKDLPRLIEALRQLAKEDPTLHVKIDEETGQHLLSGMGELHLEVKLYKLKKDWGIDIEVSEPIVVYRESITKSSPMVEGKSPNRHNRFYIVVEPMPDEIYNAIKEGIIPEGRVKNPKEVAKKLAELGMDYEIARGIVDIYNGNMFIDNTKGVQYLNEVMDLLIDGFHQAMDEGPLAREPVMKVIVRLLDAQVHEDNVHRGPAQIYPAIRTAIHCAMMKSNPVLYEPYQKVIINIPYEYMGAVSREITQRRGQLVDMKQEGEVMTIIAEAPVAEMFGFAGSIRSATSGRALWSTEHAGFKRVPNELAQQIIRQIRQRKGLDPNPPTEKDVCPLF

[2] = target: T2, PhoEF-2 F205S (Pyrococcus horikoshii, UniProt O59521 1-732, F205S)
T2 sequence (looked up): T1 sequence (looked up) with F202S, S216M

[3] = target: T3, PhoEF-2 F171S (Pyrococcus horikoshii, UniProt O59521 1-732, F171S)
T3 sequence (looked up): T1 sequence (looked up) with F168S, S216M

binding result [1]: binds | binding result [2]: binds | binding result [3]: binds
B1: Pyrococcus horikoshii ribosomal stalk protein P1 (natural protein, UniProt O57705 1-108, looked up)
chain: MEYVYAALLLHSVGKEINEENLKAVLQAAGVEPEEARIKALVAALEGVNIDEVIEKAAMPVAVAAAPAAAPAEAGGEEKKEEEKKEEEEKEEEVSEEEALAGLSALFG
modifications: in the SPR only: biotin on amino groups via a PEG linker (EZ-Link NHS-PEG4-Biotin)
